activity, CD19+ K562 cells remaining after co-culture with CAR T cells and activity (% knockout (CD3 loss)) data for 7 substances are collected here from patent publication US20190048060A1.

The test system of data set [1] is ZFN SBS57071 (engineered). The data set is described as follows: cell_activity. The note with it: pair with SBS57531, B2M ZFN only, human T cells.
Data set [2] concerns ZFN SBS59489 (engineered). The data set is described as follows: cell_activity. Conditions: pair with SBS59488, multiplex with TRAC and B2M ZFNs plus GFP donor, T cells.
The target in the next data set is human CD19 (human) (UniProt P15391). The data set is described as follows: cell-based or functional assay.
The subject of data set [3] is ZFN SBS59488 (engineered). Nature of the data set: cell_activity. The note with it: pair with SBS59489, multiplex with TRAC and B2M ZFNs plus GFP donor, T cells.
Data set [4] relates to ZFN SBS53853 (engineered). The data set is described as follows: cell_activity. The note with it: pair with SBS55266, TCRA ZFN only, human T cells.
Data set [5] concerns ZFN SBS57531 (engineered). Nature of the data set: cell_activity. Conditions: pair with SBS57071, B2M ZFN only, human T cells.
Data set [6] relates to ZFN SBS68876 (engineered). The data set is described as follows: cell_activity. Conditions: pair with SBS68877, human T cells.
The test system of data set [7] is ZFN SBS68812 (engineered). Nature of the data set: cell_activity. Conditions: pair with SBS68813, multiplex with B2M and CISH ZFNs plus GFP donor, T cells.

In turn, “GCCACGGAGCGAGACATCTCGGCCCGAA (double strand) [B2M site 57071]” came in with an activity in data set [1] of 86.6 % indels.

Take “GAGGAGGTGGCAGAGGGTACCCCAGCCC (double strand) [CISH site 59489]”: the activity in data set [2] worked out at 98 % knockout.

In the data set with human CD19 (human), “FMC63-CD8BBZ (CD19 CAR) (from UniProt P01732 138-206; Q07011 214-255; P20963 52-164)” gave a CD19+ K562 cells remaining after co-culture with CAR T cells at effector:target 2:1 (CAR inserted at the B2M gene) of 0.4% and a CD19+ K562 cells remaining after co-culture with CAR T cells at effector:target 2:1 (CAR inserted at the TCRA gene) of 0.1%.

As to “GGAAGGCCCCAGCAGGCAAGGGCTGCAT (double strand) [CISH site 59488]”, the activity in data set [3] came out at 98 % knockout.

“AACAGGTAAGACAGGGGTCTAGCCTGGG (double strand) [TCRA site 53853]” had an activity in data set [4] of 88.3 % indels.

In data set [5], “GAGTAGCGCGAGCACAGCTAAGGCCACG (double strand) [B2M site 57531]” registered an activity of 86.6 % indels.

In data set [6], “CTCCTGAAAGTGGCCGGGTTTAATCTGC (double strand) [TCRA site 68812/68876]” registered an activity (% knockout (CD3 loss)) of 97. The activity in data set [7] is 93 % knockout.
